What is called Kd is the constant that tells how readily two partners part at equilibrium. Lower therefore signals higher affinity.

Results on one substance are retold here after PMC10019796.

This experiment addresses mtDsbC-SARS-CoV-2 RBD wild type fusion protein (SARS-CoV-2) (UniProt P0DTC2). Kind of experiment: BLI; biotinylated mtDsbC-RBD (20 µg/mL) immobilised on streptavidin (SA) biosensors, Fabs as analytes at three nanomolar concentrations; Octet RED384, 30 °C, 1000 rpm, 1 × PBS Kinetics Buffer; 1:1 interaction model, global fit. For orientation: BLI is a label-free optical method that tracks binding on a fibre tip over time.

Turning to REGN10987 (L93Q) Fab, the dissociation constant Kd is > 1000 nM.
